Our source for the IDO mRNA expression in macrophages (qRT-PCR) values is patent publication US20190211099A1, “METHODS AND COMPOSITIONS FOR TREATING CANCER WITH SIGLEC-9 ACTIVITY MODULATORS” (KING'S COLLEGE LONDON, priority 2016, published 2019).

The assay concerns the target Siglec-9 expressed by primary monocytes, monocyte-derived macrophages and monocytic cell lines (THP-1, U937) (human) (UniProt Q9Y336). Put plainly: cell-based or functional assay.

Sequence of Siglec-9 expressed by primary monocytes, monocyte-derived macrophages and monocytic cell lines (THP-1, U937) (human) (Q9Y336 19-463): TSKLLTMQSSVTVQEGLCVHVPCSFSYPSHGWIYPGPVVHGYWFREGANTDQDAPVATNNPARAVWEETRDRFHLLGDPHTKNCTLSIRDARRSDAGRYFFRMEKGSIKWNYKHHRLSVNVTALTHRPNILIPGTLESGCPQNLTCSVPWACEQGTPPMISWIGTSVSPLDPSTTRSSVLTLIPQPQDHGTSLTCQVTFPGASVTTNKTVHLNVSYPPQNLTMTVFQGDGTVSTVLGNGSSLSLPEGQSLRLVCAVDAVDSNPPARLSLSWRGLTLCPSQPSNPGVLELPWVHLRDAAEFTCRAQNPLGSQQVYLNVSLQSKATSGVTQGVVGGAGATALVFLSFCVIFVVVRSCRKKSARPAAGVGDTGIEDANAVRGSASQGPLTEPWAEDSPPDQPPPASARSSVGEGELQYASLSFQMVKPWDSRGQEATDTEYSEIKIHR

With “MUC1-ST (recombinant secreted MUC1 consisting of 16 tandem repeats carrying sialylated Core-1 glycans, Ig part removed by trypsin) (from UniProt P15941 129-448) (ligand)”, the IDO mRNA expression in macrophages (qRT-PCR) lay within 10 to 25 fold.
